Experimental data from patent publication US20120058906A1 (published 2012).

Key:
[1] = target: T1, rHuman EGF R/Fc Chimera, CF (R&D Systems Cat#344-ER) (human, UniProt P00533 25-645); test: MSD ECL multi-spot plate; Fab 32.5 nM; blank spot 473
T1 construct: also called epidermal growth factor receptor; Fc part of the bought chimera not given

[2] = target: T2, Recombinant Human DLL4 (R&D Systems Cat#1506-D4/CF) (human, UniProt Q9NR61 27-524); test: as above
T2 construct: also called delta-like protein 4

[3] = target: T3, rHuman Erythropoietin R/Fc Chimera, CF (R&D Systems Cat#963-ER) (human, UniProt P19235 25-250); test: as above
T3 construct: also called EPO R/Fc; Epo R; Fc part of the bought chimera not given
T3 sequence: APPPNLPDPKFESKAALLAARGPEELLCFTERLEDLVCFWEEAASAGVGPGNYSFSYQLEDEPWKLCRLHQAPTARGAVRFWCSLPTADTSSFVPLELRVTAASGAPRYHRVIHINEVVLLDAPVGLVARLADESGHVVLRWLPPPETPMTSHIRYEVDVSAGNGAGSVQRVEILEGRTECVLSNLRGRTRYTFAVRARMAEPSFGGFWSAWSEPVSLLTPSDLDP

[4] = target: T4, rHuman P-Cadherin/Fc Chimera, CF (R&D Systems Cat#861-PC) (human, UniProt P22223 108-654); test: ECL (MSD Multi-Spot) binding, antigen spotted on plate; Fab 500 nM
T4 construct: Bought Fc chimera; Fc part of the bought chimera not given

[5] = target: T5, rHuman ErbB2/Fc Chimera, CF (R&D Systems Cat#1129-ER) (human, UniProt P04626 23-652); test: as above
T5 construct: Bought Fc chimera; also called human epidermal growth factor 2 receptor; HER2/neu; Fc part of the bought chimera not given

[6] = target: T6, Recombinant Human DLL4 (R&D Systems Cat#1506-D4/CF) (human, UniProt Q9NR61 27-524); test: as above
T6 construct: Bought recombinant protein; also called delta-like protein 4

[7] = target: T7, rHuman HGF R/c-MET/Fc Chimera, CF (R&D Systems Cat#358-MT/CF) (human, UniProt P08581 25-932); test: as above
T7 construct: Bought Fc chimera; also called HGF R/Fc; hepatocyte growth factor receptor; Fc part of the bought chimera not given

[8] = target: T8, rHuman Notch-1/Fc Chimera, CF (R&D Systems Cat#3647-TK) (human, UniProt P46531 19-526); test: as above
T8 construct: Bought Fc chimera; Fc part of the bought chimera not given

[9] = target: T9, rHuman EGF R/Fc Chimera, CF (R&D Systems Cat#344-ER) (human, UniProt P00533 25-645); test: as above
T9 construct: Bought Fc chimera; also called epidermal growth factor receptor; Fc part of the bought chimera not given

[10] = target: T10, rHuman Erythropoietin R/Fc Chimera, CF (R&D Systems Cat#963-ER) (human, UniProt P19235 25-250); test: as above
T10 construct: Bought Fc chimera; also called EPO R/Fc; erythropoietin receptor; Fc part of the bought chimera not given
T10 sequence: T3 sequence

[11] = target: T11, rHuman IGF-1 sR, CF (R&D Systems Cat#391-GR) (human, UniProt P08069 31-932); test: as above
T11 construct: Bought soluble receptor; also called insulin-like growth factor-1 soluble receptor; IGF-R1

[12] = target: T12, rHuman CD44/Fc Chimera, CF (R&D Systems Cat#3660-CD) (human, UniProt P16070 21-220); test: as above
T12 construct: Bought Fc chimera; Fc part of the bought chimera not given

[13] = target: T13, rHuman IGF-1 sR (IGF-1 sR), CF (R&D Systems Cat#391-GR) (human, UniProt P08069 31-932); test: ECL (MSD Multi-Spot) binding assay, antigen spotted on plate; Fab 154 nM; blank spot 447
T13 construct: Bought soluble receptor; also called insulin-like growth factor-1 soluble receptor; IGF-R1

[14] = target: T14, rHuman EGF R/Fc Chimera, CF (R&D Systems Cat#344-ER) (human, UniProt P00533 25-645); test: as above
T14 construct: Bought Fc chimera; also called epidermal growth factor receptor; Fc part of the bought chimera not given

[15] = target: T15, Recombinant Human DLL4 (R&D Systems Cat#1506-D4/CF) (human, UniProt Q9NR61 27-524); test: as above
T15 construct: Bought recombinant protein; also called delta-like protein 4; rHuman DLL4

[16] = target: T16, rHuman ErbB2/Fc Chimera, CF (R&D Systems Cat#1129-ER) (human, UniProt P04626 23-652); test: as above
T16 construct: Bought Fc chimera; also called HER2/neu; human epidermal growth factor 2 receptor; Fc part of the bought chimera not given

[17] = target: T17, rHuman Erythropoietin R/Fc Chimera, CF (R&D Systems Cat#963-ER) (human, UniProt P19235 25-250); test: as above
T17 construct: Bought Fc chimera; also called EPO R/Fc; Epo R; Fc part of the bought chimera not given
T17 sequence: T3 sequence

[18] = target: T18, rHuman CD44/Fc Chimera, CF (R&D Systems Cat#3660-CD) (human, UniProt P16070 21-220); test: as above
T18 construct: Bought Fc chimera; Fc part of the bought chimera not given

[19] = target: T19, rHuman Notch-1/Fc Chimera, CF (R&D Systems Cat#3647-TK) (human, UniProt P46531 19-526); test: as above
T19 construct: Bought Fc chimera; Fc part of the bought chimera not given
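Note: blank spot per well as comparator with Hit at signal to blank ratio of 4 or more.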

B1: Fab VH1-8_IGHD2-2*01_IGHJ6*01 & L12_IGKJ1*01 (Fab, V domains shown)
VH: QVQLVQSGAEVKKPGASVKVSCKASGYTFTSYDINWVRQATGQGLEWMGWMNPNSGNTGYAQKFQGRVTMTRNTSISTAYMELSSLRSEDTAVYYCARGGYCSSTSCYADYYYYYGMDVWGQGTTVTVSS
VL: not shown
B1 gave an ECL signal [1] of 645 ECL signal, an ECL signal [2] of 2990 ECL signal and an ECL signal [3] of 673 ECL signal.

B2: Fab VH1-46_IGHD6-6*01_IGHJ1*01_S102A_S103P_S104F_H111Y & L6_IGKJ1*01 (Fab, V domains shown)
VH: QVQLVQSGAEVKKPGASVKVSCKASGYTFTSYYMHWVRQAPGQGLEWMGIINPSGGSTSYAQKFQGRVTMTRDTSTSTVYMELSSLRSEDTAVYYCAREEYAPFSAEYFQYWGQGTLVTVSS
VL: not shown
notes: Fab made in E. coli; The heavy chain also carries the CH1 with Flag and His tags of Plasmid A, and the light chain the kappa constant region of Plasmid C
For B2, the ECL signal [4] was 939, the ECL signal [5] was 713 and the ECL signal [6] was 93100. The ECL signal [7] was 523, the ECL signal [8] was 644 and the ECL signal [9] was 898. The ECL signal [10] was 1210, the ECL signal [11] was 592 and the ECL signal [12] was 664.

B3: Fab VH5-51_IGHD5-18*01>3_IGHJ4*01 & V3-4_IGLJ1*01 (Fab, V domains shown)
VH: EVQLVQSGAEVKKPGESLKISCKGSGYSFTSYWIGWVRQMPGKGLEWMGIIYPGDSDTRYSPSFQGQVTISADKSISTAYLQWSSLKASDTAMYYCARRGYSYGYDYFDYWGQGTLVTVSS
VL: QTVVTQEPSFSVSPGGTVTLTCGLSSGSVSTSYYPSWYQQTPGQAPRTLIYSTNTRSSGVPDRFSGSILGNKAALTITGAQADDESDYYCVLYMGSGISYVFGTGTKVTVL
notes: Tested as a Fab made in E. coli; also called IGHV5-51*03
B3 showed an ECL signal [13] of 1400, an ECL signal [14] of 1400 and an ECL signal [15] of 40400. The ECL signal [16] was 1590, the ECL signal [17] was 1200 and the ECL signal [18] was 960. For the same binder, the ECL signal [19] was 929.
